Results on four sequences are retold here after the Immune Epitope Database (IEDB).

pKd: −log10 of the molar value.

Experiment [1] addresses HLA-B*08:01. The experiment is described as follows: IEDB peptide-MHC binding, purified MHC/competitive/fluorescence; filed as Kd, often an IC50 or EC50 that approximates it; ≥ and ≤ were set here for values at or beyond the usual limits of such assays.
The target in a further experiment is HLA-B*38:01. The description is as above. As to conditions: source organism: Human immunodeficiency virus type 1 (MAL ISOLATE).
Experiment [2] addresses HLA-B*15:01. The description is as above. As to conditions: source organism: Human immunodeficiency virus type 1 (MAL ISOLATE).
Experiment [3] deals with HLA-B*15:17. Described as above. As to conditions: source organism: Human immunodeficiency virus type 1 (MAL ISOLATE).
Experiment [4] addresses HLA-A*01:01. The description is as above.
The next experiment concerns the target HLA-A*30:01. The description is as above.
In another experiment the target is HLA-B*15:09. The experiment is described as above. The following applies: source organism: Human immunodeficiency virus type 1 (MAL ISOLATE).
For the next experiment, the target named is HLA-A*26:01. Put plainly: IEDB peptide-MHC binding, purified MHC/direct/fluorescence; filed as Kd, often an IC50 or EC50 that approximates it; ≥ and ≤ were set here for values at or beyond the usual limits of such assays.
A further experiment concerns the target HLA-B*51:01. The experiment is described as above. The following applies: source organism: Vibrio vulnificus CMCP6.
Experiment [5] concerns the target HLA-B*57:01. The experiment is described as above. The following applies: source organism: Vibrio vulnificus CMCP6.
In another experiment the target is HLA-A*02:12. The description is as above. The following applies: source organism: Vibrio vulnificus CMCP6.
Another experiment deals with HLA-A*03:01. The experiment is described as above.
Experiment [6] addresses HLA-B*15:17. Described as above. The following applies: source organism: Vibrio vulnificus CMCP6.
The target of another experiment is HLA-B*40:01. The description is as above.
The target in the next experiment is HLA-A*24:03. The description is as above. The following applies: source organism: Vibrio vulnificus CMCP6.
For the next experiment, the target named is HLA-A*02:06. The description is as above. The following applies: source organism: Vibrio vulnificus CMCP6.
In experiment [7] the target is HLA-B*07:02. The experiment is described as follows: IEDB peptide-MHC binding, purified MHC/competitive/fluorescence; filed as Kd, often an IC50 or EC50 that approximates it; ≥ and ≤ were set here for values at or beyond the usual limits of such assays. The following applies: source organism: Vibrio vulnificus CMCP6.
The target in a further experiment is HLA-B*18:01. Described as above. The following applies: source organism: Vibrio vulnificus CMCP6.
The target in experiment [8] is HLA-A*02:01. Described as above. The following applies: source organism: Vibrio vulnificus CMCP6.
The target in experiment [9] is HLA-A*29:02. Described as above. The following applies: source organism: Vibrio vulnificus CMCP6.
Experiment [10] has as its target HLA-B*58:01. The description is as above. The following applies: source organism: Vibrio vulnificus CMCP6.
Another experiment addresses HLA-B*39:01. The experiment is described as above. As to conditions: source organism: Vibrio vulnificus CMCP6.
A further experiment addresses HLA-B*14:02. The experiment is described as above. As to conditions: source organism: Vibrio vulnificus CMCP6.
Another experiment has as its target HLA-A*66:01. The experiment is described as above. The following applies: source organism: Vibrio vulnificus CMCP6.
For the next experiment, the target named is HLA-B*44:02. The experiment is described as above. As to conditions: source organism: Vibrio vulnificus CMCP6.
For experiment [11], the target named is HLA-A*11:01. The experiment is described as above. As to conditions: source organism: Vibrio vulnificus CMCP6.
The target of a further experiment is HLA-A*23:01. The description is as above. The following applies: source organism: Vibrio vulnificus CMCP6.
A further experiment addresses HLA-B*53:01. The experiment is described as above. The following applies: source organism: Vibrio vulnificus CMCP6.
Experiment [12] concerns the target HLA-B*27:05. The experiment is described as above. As to conditions: source organism: Vibrio vulnificus CMCP6.
The next experiment addresses HLA-B*35:01. The experiment is described as follows: IEDB peptide-MHC binding, purified MHC/direct/fluorescence; filed as Kd, often an IC50 or EC50 that approximates it; ≥ and ≤ were set here for values at or beyond the usual limits of such assays. The following applies: source organism: Escherichia coli.
For experiment [13], the target named is HLA-B*07:02. Described as above. The following applies: source organism: Escherichia coli.
Experiment [14] concerns the target HLA-A*02:01. The description is as above. As to conditions: source organism: Escherichia coli.
Another experiment deals with HLA-A*69:01. Described as above. As to conditions: source organism: Escherichia coli.
A further experiment addresses HLA-B*15:02. Described as above. The following applies: source organism: Salmonella enterica subsp. enterica serovar Dublin.
Experiment [15] deals with HLA-B*08:01. Described as above. As to conditions: source organism: Escherichia coli.
Experiment [16] has as its target HLA-B*15:01. The description is as above. The following applies: source organism: Escherichia coli.
The next experiment addresses HLA-A*31:01. The experiment is described as above. As to conditions: source organism: Escherichia coli.
The target of experiment [17] is HLA-A*01:01. The experiment is described as above. The following applies: source organism: Escherichia coli.
Experiment [18] has as its target HLA-A*11:01. Described as above. The following applies: source organism: Escherichia coli.
The target in experiment [19] is HLA-B*27:05. Described as above. As to conditions: source organism: Escherichia coli.
For experiment [20], the target named is HLA-B*57:01. The experiment is described as follows: IEDB peptide-MHC binding, purified MHC/competitive/radioactivity; filed as Kd, often an IC50 or EC50 that approximates it; ≥ and ≤ were set here for values at or beyond the usual limits of such assays. The following applies: source organism: Homo sapiens.
Experiment [21] deals with HLA-A*02:01. Described as above. As to conditions: source organism: Homo sapiens.
In experiment [22] the target is HLA-A*29:02. The description is as above. The following applies: source organism: Homo sapiens.
For experiment [23], the target named is HLA-B*58:01. The experiment is described as above. As to conditions: source organism: Homo sapiens.
Another experiment addresses HLA-A*02:07. Described as above. As to conditions: source organism: Homo sapiens.
Where [24] appears, read: source organism: Human immunodeficiency virus type 1 (MAL ISOLATE).
Setting [25] is: source organism: Vibrio vulnificus CMCP6.
[26] abbreviates: source organism: Escherichia coli.

In the case of GSEEIKSLY, the pKd – broadly, the negative decadic logarithm of the Kd, by convention in mol/L – in the experiment with HLA-B*08:01 [1] (setting [24]) was not above 4.70; in the experiment with HLA-B*38:01, not above 4.70; in the experiment with HLA-B*15:01 [2] it was 5.97; in the experiment with HLA-B*15:17 [3], 7.00; in the experiment with HLA-A*01:01 [4] (setting [24]) it was 7.30; with HLA-A*30:01 (setting [24]), not above 4.70. The pKd with HLA-B*15:09 was not above 4.70.

As for KQIVIINPM, the pKd is not above 4.70 in the experiment with HLA-A*26:01 (setting [25]); not above 4.70 in the experiment with HLA-B*51:01; not above 4.70 with HLA-B*57:01 [5]; 7.19 with HLA-A*02:12; not above 4.70 with HLA-A*03:01 (setting [25]); not above 4.70 with HLA-B*15:17 [6]. The pKd with HLA-B*40:01 (setting [25]) was 6.62; with HLA-A*24:03, 6.87; in the experiment with HLA-A*02:06 it was 8.70; with HLA-B*07:02 [7] it was not above 5.30; with HLA-B*18:01, not above 5.30; with HLA-A*02:01 [8], not above 5.30. In addition, the pKd with HLA-B*08:01 [1] (setting [25]), with HLA-A*29:02 [9], in the experiment with HLA-B*58:01 [10], with HLA-B*39:01, in the experiment with HLA-B*14:02 and with HLA-A*66:01 was not above 5.30 in each case. The pKd with HLA-B*44:02, with HLA-A*01:01 [4] (setting [25]), with HLA-A*30:01 (setting [25]), with HLA-A*11:01 [11], with HLA-A*23:01 and with HLA-B*53:01 was not above 5.30 each time. In the experiment with HLA-B*27:05 [12], the pKd was 7.41.

Turning to SSMNSDAAY, the pKd with HLA-A*26:01 (setting [26]) is 7.56; with HLA-B*35:01, 7.94; with HLA-B*07:02 [13], not above 4.70; with HLA-A*02:01 [14] it was not above 4.70; with HLA-A*69:01 it was not above 4.70; with HLA-B*15:02 it was 7.59. Further, the pKd with HLA-B*08:01 [15] was not above 4.70; with HLA-A*03:01 (setting [26]) it was not above 4.70; in the experiment with HLA-B*15:01 [16] it was 6.83; in the experiment with HLA-A*31:01, not above 4.70; with HLA-B*40:01 (setting [26]), not above 4.70; with HLA-A*01:01 [17], 6.77. The figures for the pKd with HLA-A*11:01 [18] and in the experiment with HLA-B*27:05 [19] were 6.84 and not above 4.70, respectively.

With YMIDPSGVSY, the pKd is not above 4.50 with HLA-B*57:01 [20]; 6.19 with HLA-A*02:01 [21]; 7.71 in the experiment with HLA-A*29:02 [22]; 6.23 with HLA-B*58:01 [23]; 4.90 with HLA-A*02:07.
